Measured values reported in US10359406B2, “Diagnosis and treatment of preeclampsia” (A1M Pharma AB, priority 2007, dated 2019).

B1: α1m: Recombinant human α1-microglobulin expressed in E. coli; small plasma and tissue protein, heme-binder and radical scavenger (protein, UniProt P02760 20-203, looked up)
Alpha-1-microglobulin: GPVPTPPDNIQVQENFNISRIYGKWYNLAIGSTCPWLKKIMDRMTVSTLVLGEGATEAEISMTSTRWRKGVCEETSGAYEKTDTDGKFLYHKSKWNITMESYVVHTNYDEYAIFLTKKFSRHHGPTITAKLYGRAPQLRETLLQDFRVVAQGVGIPEDSIFTMADRGECVPGEQEPEPILIPRV
modifications: Alpha-1-microglobulin

What was measured:
[1] = human blood plasma glycoprotein; read-out: Kd of heme binding; cited from earlier work
K562 cells [2] = assay: Scavenging of cell-bound heme from K562 cells (spectrophotometry, visual); assay type: cell-based, human; conditions: cells preloaded with 10 μM heme 30 min; protein 2 or 10 μM, 2 h
Description: FIG. 18. Scavenging of cell heme by α1m. Human erythroleukemic cells (K562) were cultured with either buffer or 10 μM heme for 30 minutes, washed and resuspended in fresh culture medium. A: The cells were then incubated with α1m (2 or 10 μM) for 2 hours, after which time the culture medium was saved. The cells were washed and solubilized by suspending in a buffer containing 1% NP-40. The culture medium and cellsuspension were then analysed spectrophotometrically by reading the absorbance spectra (300-700 nm). B: The various cultures were also analysed visually. Cells were incubated with either buffer or 10 μM heme for 30 min (Step 1), washed and then incubated with buffer, 10 μM α1m or 10 μM AGP for 2 hours (Step 2), washed and solubilized as described above.
To study the mechanisms of the cytoprotective effect of α1m, we performed a series of experiments attempting to analyze the interactions between the protein and cell-bound heme. […] The culture media were saved, cells washed and solubilized, and both media and solubilized cells analyzed by spectrophotometry (FIG. 18A) and visually (FIG. 18B). Heme was seen as a strong brown-coloring of the cells and the typical absorbance spectrum with a non-distinct peak around 400 nm. […]

K562 cells [3] = assay: Heme-induced cell lysis/death of K562 cells (propidium iodide, FACS); assay type: cell-based, human; conditions: extracellularly added α1m 2, 5 or 10 μM; 200 μM heme, 4 h
Description: (§1) FIG. 16. A. Cell-protective properties of α1m against heme- and ROS-induced oxidation. K562 cells were labelled with the oxidation-sensitive probe H2DCFDA, washed, and incubated with α1m (2, 5 or 10 μM), AGP (2, 5 or 10 μM) or ascorbate (10 μM) prior to the addition of 10 μM heme. The cells were incubated for 2 h and analysed with FACS. B. K562 cells were cultured with α1m (2, 5 or 10 μM) or a control protein (α1-acid glycoprotein, AGP) (10 μM) prior to the addition of 200 μM heme and cultured 4 h. The cell suspension was collected, mixed with propidium iodide and analysed with FACS.
(§2) The anti-oxidation properties of α1m are illustrated in FIGS. 16 and 17. […] A possible mechanism for these actions may be the reductase properties of α1m, reducing the oxidants, the oxidation modifications, or both.

K562 cells [4] = assay: Heme- and ROS-induced oxidation of K562 cells (H2DCFDA probe, FACS); assay type: cell-based, human; conditions: extracellularly added α1m 2, 5 or 10 μM; 10 μM heme, 2 h
Description: as §1, §2

collagen = assay: Heme-induced oxidation of collagen/LDL; carbonyl groups measured by ELISA; assay type: biochemical
Description: FIG. 17. Reduction of carbonyl groups on oxidized collagen by α1m. Collagen, coated to microtiter plates, was oxidized by incubation with 50 μM heme for 17 h. After washing, 0.1, 0.3 or 1 μM α1m, ovalbumin or ascorbate were added, and incubated for 2 h. Carbonyl groups were measured by ELISA. Each column represents the mean of triplicates+/−SE
as §2

haemoglobin = assay: Haemoglobin-α1m complex isolated from placenta tissue (anti-α1m affinity column, SDS-PAGE, Western blotting); assay type: binding, human; conditions: 43-kDa band reacting with anti-α1m and anti-Hb-A; lost with mercaptoethanol
Description: FIG. 20 show SDS-PAGE and Western blotting of a haemoglobin-α1m complex isolated from placenta tissue. A placenta from a healthy donor was homogenized and centrifuged at 100,000 G for 60 min. The supernatant was applied to an anti-α1m Affigel column which was rinsed and eluted with 0.1 M glycine-HCl, pH 2.3. The eluate was separated by SDS-PAGE which was either stained with Coommassie (two left lanes) or transferred to PVDF membranes and blotted with anti-α1m or anti-Hb-A.
Molecules containing α1m were purified from placenta tissue as described [Berggård et al., 1999]. Approximately 200 g of an apparently normal term human placenta, taken within 3 hours after delivery, were homogenized in 200 ml of 50 mM Tris-HCl, pH 8.0, 0.25 M sucrose, 2 mM EDTA, pepstatin, 1 mg/l, antipain, 5 mg/l, and leupeptin, 10 mg/l, using a Potter-Elvehjem apparatus with a tight-fitting teflon pestle. The homogenate was centrifuged at 10,000 G for 10 min. This pellet was washed by repeatedly suspending 1:1 in the homogenization buffer and recentrifugation at 10,000 G for 10 min. The supernatant was centrifuged at 100,000 G for 90 min. This pellet, containing the placenta membranes and membrane-bound proteins, was dissolved in 40 ml homogenization buffer also containing 0.5% (w/v) Nonidet P-40 (BDH Chemicals) and centrifuged at 20,000 G for 30 min to remove particulate material. […]

Molecule | Kd [1] | effect on cell-bound heme (K562 cells [2]) | cell lysis (cell death) induced by heme (K562 cells [3]) | oxidation of cell cytosol and cytosol protein thiol groups by heme and ROS (K562 cells [4]) | heme- and ROS-induced oxidation of collagen, LDL, membrane lipids and whole cells (collagen) | removal of pre-formed oxidation products (carbonyl groups) on collagen and LDL (collagen; collagen oxidized with 50 μM heme 17 h, 0.1, 0.3 or 1 μM α1m, 2 h) | binding of haemoglobin in placenta tissue (haemoglobin)
Hemopexin: glycoprotein (60 kDa) found in human blood plasma which eliminates free heme by binding it strongly | ~1 pM |  |  |  |  |  | 
AGP: control protein (α1-acid glycoprotein), control lipocalin [reference compound] |  | did not have any effect |  |  |  |  | 
B1 |  | almost completely removed from the cells | inhibits the cell lysis | inhibit the oxidation | inhibited | removed pre-formed oxidation products | haemoglobin is bound by α1m
